Assay results taken from the supplement of paper PMC12783771.
± gives the standard deviation of the averaged measurements.

B1: library; a variant is named by its letters at X, in order (parent)
chain: MNIQIGELAKRTACPVVTIRFYEQEGLLPPPGRSRGNFRLYGEEHVERLQFIRHCRSLDMPLSDVRTLLSYRKRPDQDCGEVXMLLDEHIRQVESRIGALLELKHHLVELREACSGARPAQSCGILQXLSXCVCXTRGTTAHXSD

Legend:
[1] = variants of: B1; experiment: sfGFP reporter fluorescence (15 h) (µM FITC); higher = higher leak; settings: library round: Round 2; ligand: none
Protocol: (§1)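 Cell-free biosensing: 1 µL Echo-assembled CFE reactions with linear PbrR variant templates (5 nM) and pPbrR-sfGFP reporter, with 1 µM Pb, 30 µM Zn or no ligand; endpoint sfGFP fluorescence after 15 h at 30 °C calibrated as µM FITC. Round 2 ML-predicted PbrR mutants; up to 3 biological replicates.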

[2] = variants of: B1; experiment: sfGFP reporter fluorescence (15 h) (µM FITC); higher = stronger transcriptional activation; settings: library round: Round 2
Protocol: as §1

Variant | sfGFP reporter fluorescence [1] | sfGFP reporter fluorescence ([2]; ligand: 1 µM Pb) | sfGFP reporter fluorescence ([2]; ligand: 30 µM Zn)
NGDDP M60L P61N D64N | 0.291 ± 0.025 | 0.582 ± 0.11 | 2.53 ± 0.24
TGDDP R96A E109A | 0.0459 ± 0.0014 | 0.0588 ± 0.00089 | 0.144 ± 0.02
TIDDP P61N D64K | 0.106 ± 0.013 | 0.617 ± 0.019 | 1.75 ± 0.14
TGSPP | 0.0436 ± 0.0022 | 0.125 ± 0.0052 | 0.305 ± 0.0072
TGDDP V108L E112F | 0.0469 ± 0.0011 | 0.0496 ± 0.0032 | 0.0846 ± 0.0051
NGADY V133A | 0.0753 ± 0.0056 | 0.124 ± 0.0081 | 1.15 ± 0.1
NGCDP V108I S115G | 0.0507 ± 0.0021 | 0.0573 ± 0.0016 | 0.115 ± 0.0092
TGDDP D64T R111L | 0.0779 ± 0.0063 | 0.151 ± 0.011 | 1.9 ± 0.12
TGDDP D64T R111A | 0.09 ± 0.012 | 0.212 ± 0.024 | 2.38 ± 0.096
TGSDP V108L | 0.0452 ± 0.0017 | 0.0823 ± 0.0056 | 0.229 ± 0.022
NIAPP | 0.139 ± 0.0095 | 0.472 ± 0.03 | 2.03 ± 0.16
TGCAP Q121A | 0.0482 ± 0.0011 | 0.0978 ± 0.0067 | 0.156 ± 0.0046
NIDDP K104T L107E | 0.047 ± 0.0022 | 0.0442 ± 0.00085 | 0.0493 ± 0.0021
NICDP K104R | 0.0714 ± 0.0069 | 0.134 ± 0.0046 | 0.244 ± 0.034
NGTDP S115G V133P | 0.0474 ± 0.0012 | 0.0633 ± 0.00085 | 0.461 ± 0.052
NHDDW E109L | 0.0479 ± 0.00051 | 0.0832 ± 0.0024 | 0.399 ± 0.045
NGCAY | 0.0505 ± 0.0017 | 0.0635 ± 0.0058 | 0.277 ± 0.0034
NGCAL | 0.0515 ± 0.0016 | 0.0668 ± 0.0024 | 0.255 ± 0.022
NGDAP L129I H142A | 0.0458 ± 0.0024 | 0.0491 ± 0.0012 | 0.302 ± 0.012
NGDAP D64T Q127G | 0.0728 ± 0.0058 | 0.121 ± 0.013 | 1.87 ± 0.15
NGDDW R74Q G138A | 0.0503 ± 0.0034 | 0.05902 ± 0.00051 | 0.58 ± 0.017
NGDDR V108L T139A | 0.0498 ± 0.0012 | 0.068 ± 0.0054 | 0.809 ± 0.081
NGSRP L126I | 0.0416 ± 0.0022 | 0.0457 ± 0.0021 | 0.333 ± 0.0046

Variant | sfGFP reporter fluorescence [1] | sfGFP reporter fluorescence ([2]; ligand: 1 µM Pb) | sfGFP reporter fluorescence ([2]; ligand: 30 µM Zn)
NMDDP L85I K104V | 0.131 ± 0.013 | 0.417 ± 0.024 | 1.99 ± 1.7
NIDAK L107C G124A | 0.814 ± 0.086 | 2.25 ± 0.053 | 3.09 ± 0.3
TGNDP I90L | 0.0469 ± 0.0017 | 0.0573 ± 0.0011 | 0.192 ± 0.014
TGDDL T139A | 0.0436 ± 0.001 | 0.0619 ± 0.0082 | 0.241 ± 0.015
NGDAP M60L D64K | 1.45 ± 1.3 | 1.27 ± 0.82 | 3.35 ± 0.63
TGSAP V108L | 0.0457 ± 0.0012 | 0.102 ± 0.0018 | 0.475 ± 0.012
NGDDP P61N D64T E112V | 0.117 ± 0.013 | 0.294 ± 0.026 | 2.13 ± 0.17
NGDAP P61N D64T E112I | 0.11 ± 0.014 | 0.308 ± 0.03 | 1.7 ± 0.2
NGCAP S130A | 0.0466 ± 0.011 | 0.0819 ± 0.0045 | 0.429 ± 0.066
NGCDR K104R | 0.047 ± 0.0037 | 0.0672 ± 0.0019 | 0.0986 ± 0.0051
TGDDP L107I E112A | 0.0475 ± 0.0007 | 0.131 ± 0.0047 | 0.511 ± 0.039
NIDDP P61N D64K K104V L107A | 0.0923 ± 0.0059 | 0.215 ± 0.018 | 1.34 ± 0.1
THDDW | 0.0458 ± 0.0021 | 0.0682 ± 0.011 | 0.0889 ± 0.0029
NGTAT | 0.0539 ± 0.0037 | 0.0908 ± 0.0051 | 0.937 ± 0.052
TGDDP R96A K104V L107I | 0.0526 ± 0.0017 | 0.0483 ± 0.0032 | 0.0559 ± 0.002
NIADP L107C | 2.06 ± 0.19 | 3.57 ± 0.56 | 3.67 ± 0.32
NGADP V133P C134V | 0.0817 ± 0.0086 | 0.0967 ± 0.019 | 2.1 ± 0.36
TGDDM V108L | 0.0605 ± 0.0032 | 0.0645 ± 0.0026 | 0.209 ± 0.025
TGDDP D64E V108N | 0.0416 ± 0.00051 | 0.0357 ± 0.0033 | 0.0616 ± 0.0048
NGDDP M60L P61N D64K K104V L107C | 0.716 ± 0.071 | 2.14 ± 0.18 | 3.11 ± 0.31
TGDDY I125L | 0.0486 ± 0.0014 | 0.0429 ± 0.0049 | 0.0494 ± 0.0015
NIDDP H105E L107C C134E | 2.32 ± 0.044 | 2.05 ± 0.18 | 2.82 ± 0.14
NHCDA | 0.0569 ± 0.0056 | 0.0749 ± 0.0034 | 0.446 ± 0.063

Variant | sfGFP reporter fluorescence [1] | sfGFP reporter fluorescence ([2]; ligand: 1 µM Pb) | sfGFP reporter fluorescence ([2]; ligand: 30 µM Zn)
TGDDY V82I L129I | 0.0454 ± 0.0012 | 0.0463 ± 0.00051 | 0.0601 ± 0.013
TGDDP R111D E112H | 0.0469 ± 0.002 | 0.0446 ± 0.0019 | 0.0529 ± 0.003
TGAYC | 0.05432 ± 0.00051 | 0.085 ± 0.0051 | 0.699 ± 0.064
TGCAP | 0.0461 ± 0.0022 | 0.0657 ± 0.0026 | 0.0869 ± 0.005
TGCAT | 0.0488 ± 0.002 | 0.0664 ± 0.0029 | 0.09 ± 0.0056
NGDDR T136A T140A | 0.0505 ± 0.0017 | 0.0665 ± 0.0039 | 0.801 ± 0.079
NISDP L107C | 2.65 ± 0.43 | 3.61 ± 0.5 | 3.33 ± 0.18
NMDAP L107C | 2.23 ± 0.28 | 3.21 ± 0.21 | 3.29 ± 0.5
NGDDP M60F P61N D64K K104V | 0.395 ± 0.16 | 0.744 ± 0.16 | 2.04 ± 0.33
NMDAP L85I | 0.11 ± 0.012 | 0.278 ± 0.017 | 3.11 ± 0.44
NGCDP P61N H106A | 0.0622 ± 0.0038 | 0.166 ± 0.0088 | 0.457 ± 0.079
NIEDP L107C | 1.74 ± 0.23 | 2.69 ± 0.47 | 3.33 ± 0.68
TGDDA E25V | 0.0619 ± 0.0073 | 0.072 ± 0.0079 | 0.252 ± 0.031
NGCDA L107C | 0.757 ± 0.089 | 1.68 ± 0.17 | 3.37 ± 0.31
TIDAP L107C G124A | 0.27 ± 0.037 | 1.38 ± 0.23 | 2.81 ± 0.45
NMDAP L101V K104V | 0.176 ± 0.024 | 0.55 ± 0.022 | 2.78 ± 0.34
SGDDP L85Y K104V | 0.0628 ± 0.0056 | 0.0671 ± 0.0055 | 0.248 ± 0.027
NGDAP E109D G124A | 0.0638 ± 0.0036 | 0.0745 ± 0.0045 | 0.474 ± 0.07
TGDAP E109L | 0.043 ± 0.0023 | 0.0797 ± 0.0069 | 0.366 ± 0.035
TGHAP | 0.0614 ± 0.0048 | 0.0828 ± 0.0035 | 0.394 ± 0.061
NIDDP M60L D64K R111L | 1.98 ± 0.27 | 3.14 ± 0.19 | 3.92 ± 0.41
NGDAY L110V | 0.0649 ± 0.005 | 0.0584 ± 0.0031 | 0.445 ± 0.032
TGCDL | 0.045 ± 0.00089 | 0.0743 ± 0.011 | 0.0958 ± 0.0017

Variant | sfGFP reporter fluorescence [1] | sfGFP reporter fluorescence ([2]; ligand: 1 µM Pb) | sfGFP reporter fluorescence ([2]; ligand: 30 µM Zn)
TGCDT | 0.0478 ± 0.0007 | 0.0731 ± 0.0033 | 0.0847 ± 0.0041
TGCDI | 0.0463 ± 0.0019 | 0.0711 ± 0.0029 | 0.0916 ± 0.0046
TGCDA | 0.0468 ± 0.0016 | 0.0758 ± 0.0041 | 0.0857 ± 0.0083
NIDDP D64K V108E | 0.181 ± 0.026 | 0.581 ± 0.051 | 3.32 ± 0.42
SGDDP I90L V108N | 0.0447 ± 0.0012 | 0.04614 ± 0.00039 | 0.0897 ± 0.013
NGDDP M60L D64K E81A | 1.03 ± 0.075 | 2.19 ± 0.059 | 3.74 ± 0.22
TGDDW L126I | 0.0487 ± 0.0018 | 0.04581 ± 0.00039 | 0.0773 ± 0.00089
NGDDP D64K K104V R111A | 0.0829 ± 0.0096 | 0.354 ± 0.017 | 2.2 ± 0.44
NHDAW | 0.0656 ± 0.0096 | 0.117 ± 0.0091 | 0.55 ± 0.081
NMDDP K104V L107S | 0.0726 ± 0.0093 | 0.159 ± 0.014 | 1.27 ± 0.068
NIDSP M60L | 0.251 ± 0.048 | 0.739 ± 0.14 | 2.25 ± 0.49
NIDDP L107C G124A | 0.942 ± 0.1 | 2.53 ± 0.21 | 3.41 ± 0.84
TGDDP K104R E112F | 0.0494 ± 0.00089 | 0.0553 ± 0.0034 | 0.111 ± 0.0062
TGDRP L107C | 0.176 ± 0.016 | 1.17 ± 0.063 | 2.94 ± 0.2
TGDDT R111I | 0.0459 ± 0.00085 | 0.0556 ± 0.0012 | 0.201 ± 0.0085
TGDDT R111V | 0.048 ± 0.00067 | 0.0656 ± 0.0064 | 0.282 ± 0.033
NGCDP I125V L129M | 0.0493 ± 0.0017 | 0.0435 ± 0.0022 | 0.0493 ± 0.003
NHEDW | 0.0563 ± 0.0014 | 0.119 ± 0.014 | 0.842 ± 0.068
NIDDP I90L C134E | 0.0691 ± 0.0074 | 0.0913 ± 0.0088 | 1.77 ± 0.32
NGDDP M60L D64S L107C | 3.21 ± 0.37 | 2.96 ± 0.13 | 3.58 ± 0.77
